Laboratory results reported in patent EP2091973A2.

Assays:
Assay in all cases: cell-based or functional assay
[1] = biological target: gp120 of HIV strain BR004 (clade C) on virus (HIV-1 (strain BR004))
[2] = biological target: gp120 of HIV strain SF162 (clade B) on virus (HIV-1 (strain SF162))
[3] = biological target: gp120 of HIV strain ZA009 (clade C) on virus (HIV-1 (strain 97ZA009))

Substance: MAb b12 (antibody)
- IC80, HIV neutralization (PBMC hosts, p24) [1]: > 20 µg/mL
- IC80, HIV neutralization (PBMC hosts, p24) [2]: 14.1 µg/mL
- IC80, HIV neutralization (PBMC hosts, p24) [3]: > 20 µg/mL
